The target of the experiment is antigen bound by the GC4 antibody on GBM tumor sphere cells (target antigen not determined). The experiment in a line: FACS on GBM tumor sphere cells at RT, MFI fitted (apparent dissociation constant).

B1: recombinant human GC4 IgG1 (antibody, V domains shown)
VH: QVQLVESGGGLVQPGGSLRLSCAASGFTFGTYDMSWVRQAPGKGLEWVSGISGSGGSTYYADSVKGRFTISRDNSKNTVYLQMNSLRVEDTAVYYCARGGWYSDNWGQGTLVTVSS
VL: SELTQDPAVSVALGQTVRITCQGGSLRSYYASWYQQKPGQAPLLVIYGENNRPSGIPDRFSGSSSGNTASLTITGAQAEDEADYYCHSRDSSGNHVVFGGGTKLTV
As for B1, the Kd is 79.7 nM.

The record behind these values is patent US20120039915A1.
